Among the data in US20180311371A1 (Hoffmann-La Roche, published 2018) are EC50 values, retold here.

In assay [1] the target is T1, cynomolgus TPBG extracellular domain, His6Avi, biotinylated (cynomolgus, biotinylated).
T1 construct: also called cyTPBG; cyno TPBG-AviHis
T1 chain: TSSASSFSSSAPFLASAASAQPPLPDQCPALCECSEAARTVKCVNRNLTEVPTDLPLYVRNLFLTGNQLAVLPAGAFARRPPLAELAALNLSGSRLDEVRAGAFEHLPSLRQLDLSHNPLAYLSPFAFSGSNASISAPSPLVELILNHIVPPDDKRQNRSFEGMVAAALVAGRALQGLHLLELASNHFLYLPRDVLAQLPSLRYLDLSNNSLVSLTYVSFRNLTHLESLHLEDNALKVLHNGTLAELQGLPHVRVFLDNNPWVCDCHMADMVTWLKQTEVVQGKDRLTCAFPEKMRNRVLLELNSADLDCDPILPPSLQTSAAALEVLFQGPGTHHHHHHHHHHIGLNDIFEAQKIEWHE
Briefly: ELISA; biotinylated TPBG-AviHis on streptavidin plate; Fab titrated from 2 µg/ml. Background: An ELISA detects its analyte on a solid surface through an enzyme-linked reagent.

For assay [2], the target named is T2, minipig TPBG extracellular domain, His6Avi, biotinylated (minipig, biotinylated).
T2 construct: also called mpTPBG; minipig TPBG-AviHis
T2 chain: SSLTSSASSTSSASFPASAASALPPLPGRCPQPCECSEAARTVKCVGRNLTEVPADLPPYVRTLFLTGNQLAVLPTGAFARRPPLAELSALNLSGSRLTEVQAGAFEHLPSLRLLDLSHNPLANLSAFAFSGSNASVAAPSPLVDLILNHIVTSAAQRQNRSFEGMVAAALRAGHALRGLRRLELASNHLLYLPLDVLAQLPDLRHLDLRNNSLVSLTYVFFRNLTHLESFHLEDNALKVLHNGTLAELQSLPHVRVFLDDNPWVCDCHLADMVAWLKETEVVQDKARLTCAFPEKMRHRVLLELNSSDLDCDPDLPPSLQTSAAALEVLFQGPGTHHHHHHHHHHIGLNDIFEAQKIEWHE
Described as above.

B1: anti-TPBG antibody 091, Fab fragment (Fab, V domains shown)
VH: EVHLLESGGGLVHPGGSLRLSCAASGFTFRSDAMHWVRQAPGKGLEWVSGVSGSGGSPYYADSVKGRFTISRDDSKTTLYLQMNSLRAEDTAVYYCATGGSIAGSYYYYPMDVWGQGTTVTVSS
VL: DIQMTQSPSSLSASVGDRVTITCQASQDISNYLNWYQQKPGKAPKLLIYAASTLQIGVPSRFSGSGSGTDFTFTISSLQPEDFATYYCQQANSFPLTFGGGTKVEIK
notes: also called Fab2
What is called EC50 is the midpoint of the concentration-response curve. On to B1, for which the results for the concentration giving a half-maximal response (EC50) in assay [1] and in assay [2] were 1.23 µg/mL and 0.0618 µg/mL, respectively.
